Laboratory results taken from patent EP3170507A1 (Consejo Superior de Investigaciones Cientificas (CSIC), dated 2017).

T1: rabbit-lung angiotensin converting enzyme (ACE) (Sigma) (rabbit, UniProt P12822 34-1310, limits assumed)
T1 sequence (looked up): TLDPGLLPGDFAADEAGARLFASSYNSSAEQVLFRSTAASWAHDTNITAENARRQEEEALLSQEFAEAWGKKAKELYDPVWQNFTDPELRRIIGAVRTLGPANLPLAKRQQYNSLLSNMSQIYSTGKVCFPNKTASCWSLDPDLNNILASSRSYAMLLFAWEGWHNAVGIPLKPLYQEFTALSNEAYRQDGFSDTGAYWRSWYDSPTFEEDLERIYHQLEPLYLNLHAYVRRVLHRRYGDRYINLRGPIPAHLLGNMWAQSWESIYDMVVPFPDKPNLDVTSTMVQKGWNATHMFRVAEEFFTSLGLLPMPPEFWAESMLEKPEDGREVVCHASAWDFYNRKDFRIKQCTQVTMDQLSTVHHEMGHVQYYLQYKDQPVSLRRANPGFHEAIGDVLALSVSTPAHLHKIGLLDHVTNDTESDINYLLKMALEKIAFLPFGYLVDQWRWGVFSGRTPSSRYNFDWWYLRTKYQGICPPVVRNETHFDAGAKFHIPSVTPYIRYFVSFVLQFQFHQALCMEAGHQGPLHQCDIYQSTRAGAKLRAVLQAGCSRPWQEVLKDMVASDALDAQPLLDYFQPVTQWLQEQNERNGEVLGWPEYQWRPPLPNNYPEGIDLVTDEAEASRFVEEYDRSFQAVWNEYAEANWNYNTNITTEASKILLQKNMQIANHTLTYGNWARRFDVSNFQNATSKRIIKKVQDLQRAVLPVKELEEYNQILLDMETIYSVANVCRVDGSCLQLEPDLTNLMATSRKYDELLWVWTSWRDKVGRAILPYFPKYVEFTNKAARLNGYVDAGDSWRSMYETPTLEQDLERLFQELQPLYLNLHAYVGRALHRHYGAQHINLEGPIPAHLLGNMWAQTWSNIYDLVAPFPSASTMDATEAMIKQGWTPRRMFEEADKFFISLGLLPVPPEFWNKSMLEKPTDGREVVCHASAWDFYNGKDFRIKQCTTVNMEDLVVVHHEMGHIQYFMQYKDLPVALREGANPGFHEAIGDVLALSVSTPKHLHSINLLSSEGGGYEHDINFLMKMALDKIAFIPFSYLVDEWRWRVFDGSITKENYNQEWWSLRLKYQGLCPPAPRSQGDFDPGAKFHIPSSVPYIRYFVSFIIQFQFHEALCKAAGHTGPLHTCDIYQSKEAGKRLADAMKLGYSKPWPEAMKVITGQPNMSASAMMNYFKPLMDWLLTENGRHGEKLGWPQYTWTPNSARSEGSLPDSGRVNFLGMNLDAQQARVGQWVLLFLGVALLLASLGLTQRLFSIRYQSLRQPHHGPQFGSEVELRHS


What follows are binders tested against T1, rabbit-lung angiotensin converting … (assay: cell-based or functional assay).

| Binder | ACE inhibitory activity, IC50 [µM] |
| --- | --- |
| YYCPADCPS [SEQ ID NO: 2 peptide YYCPADCPS] | 1.64 |
| HCGCNTH [SEQ ID NO: 5 peptide HCGCNTH] | 2.59 |
| CCGNAVPQ [SEQ ID NO: 7 peptide CCGNAVPQ] | 39.6 |
| YGCGCDPL [SEQ ID NO: 3 peptide YGCGCDPL] | 1.85 |

The remaining lines, values ahead:

| ACE inhibitory activity, IC50 [µM] | Binder |
| --- | --- |
| 0.84 | RDGGYCC [SEQ ID NO: 1 peptide RDGGYCC] |
| 2.58 | LEEFCC [SEQ ID NO: 4 peptide LEEFCC] |
| 6.88 | WAAGYCC [SEQ ID NO: 6 peptide WAAGYCC] |
